Results reported in US20250332254A1, “METHODS FOR TREATING PATIENTS WITH FAMILIAL HYPERCHOLESTEROLEMIA” (REGENERON PHARMACEUTICALS, INC., priority 2016, published 2025).
Several values for one entry are separate records, joined by “and”; a condition that tells them apart may be missing. Equal values may be shown once.

How the values were obtained:
[1] = target: T1, ANGPTL3 (Homo sapiens, UniProt Q9Y5C1); test: Phase 2 open-label study of evinacumab in patients with homozygous familial hypercholesterolemia on concomitant lipid-lowering therapies; assay type: in vivo
T1 construct: Angiopoietin-like protein 3 (ANGPTL3) is a secreted protein expressed in the liver; from tissue; host or cells: in vivo, human subjects; circulating protein secreted by the liver
T1 sequence (Q9Y5C1 17-460): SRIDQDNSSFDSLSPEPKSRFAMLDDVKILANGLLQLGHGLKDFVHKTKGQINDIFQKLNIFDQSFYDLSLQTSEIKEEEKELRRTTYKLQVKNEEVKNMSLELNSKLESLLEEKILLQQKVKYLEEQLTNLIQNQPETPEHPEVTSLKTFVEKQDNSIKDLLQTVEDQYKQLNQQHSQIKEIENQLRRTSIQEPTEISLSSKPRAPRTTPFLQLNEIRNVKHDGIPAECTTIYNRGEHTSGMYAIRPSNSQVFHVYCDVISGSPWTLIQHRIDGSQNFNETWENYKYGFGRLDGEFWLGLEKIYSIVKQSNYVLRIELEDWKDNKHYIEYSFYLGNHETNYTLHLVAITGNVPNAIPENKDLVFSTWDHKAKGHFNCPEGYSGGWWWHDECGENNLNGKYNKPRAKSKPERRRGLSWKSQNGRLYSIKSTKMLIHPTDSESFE
Protocol: Patients: The nine patients (5 men, 4 women) were selected based on their genotypes and phenotypes. All presented a history of LDL-C >500 mg per deciliter or >400 mg per deciliter after portacaval shunt, premature atherosclerosis (8 of 9 with prior history of cardiovascular events) and severe xanthomatosis, and were homozygotes or compound heterozygotes for known FH-causing LDLR mutations (Hobbs, et al. 1992 Hum Mutat 1:445-66). Three patients were null homozygotes. All patients were on maximally tolerated lipid-lowering therapy.
Study Treatment: The patients were required to maintain their usual background lipid-lowering therapy and diet and exercise regimens throughout the study. All patients received a single open-label dose of evinacumab 250 mg subcutaneously in the abdominal area during the baseline visit and a single 15 mg per kilogram intravenous dose of evinacumab 2 weeks later. The sterile, lyophilized evinacumab drug product was supplied in a 5-ml single-use glass vial for reconstitution to a concentration of 100 mg per milliliter for subcutaneous doses and 50 mg per milliliter for intravenous doses. Patients were followed for a period of up to 24 weeks after the intravenous dose to allow for washout of evinacumab, and were offered enrollment in an extension study.
Pharmacodynamic Assessment: Fasting blood samples were collected before administration of study drug, at baseline and at regular intervals during the open-label treatment period and safety follow-up period, for measurement of LDL-C, non-HDL-C, total cholesterol, HDL-C, apolipoprotein B, lipoprotein (a), triglycerides, apolipoprotein A-1, and other parameters. The primary endpoint was the mean ±standard deviation (SD) percent change in LDL-C from baseline to week 4.

[2] = target: T1, ANGPTL3; test: Phase 1 first-in-human ascending single-dose placebo-controlled study of evinacumab SC or IV in subjects with elevated TGs and/or LDL-C; assay type: in vivo
Protocol: Methods: The instant study constituted a phase 1, first-in-human, ascending single-dose, placebo (PBO)-controlled, double-blind study of evinacumab administered subcutaneously (SC) or intravenously (IV) in subjects with elevations of TGs (150≤TG≤450 mg/dL) and/or LDL C (≥100 mg/dL). Eighty-three subjects were randomized into the study (9 in PBO SC; 12 in PBO IV; 11 in 75 mg SC: 12 in 150 mg SC, 9 in 250 mg SC, 10 in 5 mg/kg IV, 9 in 10 mg/kg IV, and 11 in 20 mg/kg IV).

[3] = target: T1, ANGPTL3; conditions: Dewey, et al. 2017; cited from earlier work
[4] = target: T2, ANGPTL3 (Mus musculus, UniProt Q9R182); conditions: mouse model; Wang, et al. 2015; cited from earlier work
T2 construct: host or cells: mouse, in vivo
T2 sequence (Q9R182 17-455): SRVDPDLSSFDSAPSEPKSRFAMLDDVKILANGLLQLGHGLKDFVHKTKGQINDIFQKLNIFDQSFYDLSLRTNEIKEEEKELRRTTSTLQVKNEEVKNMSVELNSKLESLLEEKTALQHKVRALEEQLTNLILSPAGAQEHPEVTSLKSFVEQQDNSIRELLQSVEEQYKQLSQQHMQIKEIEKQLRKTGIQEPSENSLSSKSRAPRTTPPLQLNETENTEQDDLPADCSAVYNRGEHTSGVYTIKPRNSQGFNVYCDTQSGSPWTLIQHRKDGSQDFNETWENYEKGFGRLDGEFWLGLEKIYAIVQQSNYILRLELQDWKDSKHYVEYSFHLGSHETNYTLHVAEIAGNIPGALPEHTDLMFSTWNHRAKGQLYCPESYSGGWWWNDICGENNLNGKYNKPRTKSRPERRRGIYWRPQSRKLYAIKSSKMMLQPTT

[5] = nine HoFH patients, baseline to week 4, given as a decrease
[6] = nine HoFH patients, between weeks 4 and 12

## evinacumab: human anti-ANGPTL3 monoclonal antibody; HCVR SEQ ID NO:1, LCVR SEQ ID NO:5
[1]; nine HoFH patients
  adverse events considered as related to the study medication: Six events were considered as related to the study medication
  adverse events leading to treatment discontinuation: none led to treatment discontinuation
  occurrence of at least one adverse event: All nine patients reported the occurrence of at least one adverse event
  serious adverse events: One event (coronary artery disease due to underlying disease) was serious but was not considered as related to the study medication
[1]; nine HoFH patients, baseline to week 4
  triglycerides percent change, interquartile range: −57% to −38%
[1]; [5]
  HDL-C decreased by (percent change, mean±SD): 36±16%
  apolipoprotein B decreased by (percent change, mean±SD): 46±18%
  non-HDL-C decreased by (percent change, mean±SD): 49±22%
  triglycerides decreased by (percent change, median): 47%
[1]; [6]
  Overall mean±SD peak reduction in LDL-C: -58+18% and −58±18%
  absolute peak reduction in LDL-C: 202 mg/dL
[1]; nine HoFH patients, between weeks 4 and 12, range across patients
  range of peak reduction in LDL-C: -90% to-33%
[1]; nine HoFH patients, week 4
  absolute change from baseline in LDL-C (mean±SD): −157±90 mg per deciliter
  mean±SD achieved LDL-C value: 219±191 mg per deciliter
  mean±SD percent change in LDL-C from baseline to week 4 (pre-specified primary endpoint): −49±23%
[1]; nine HoFH patients, week 4, range across patients
  range of absolute change from baseline in LDL-C: −323 to −71 mg per deciliter
[1]; one patient, week 4 (2 weeks after the intravenous dose)
  reduction in LDL-C achieved by one patient: greater than 80%
[1]; patient D, no lomitapide, week 4
  reduction in LDL-C, patient D: −77%
[2]; Day 4, across the evinacumab doses (75-250 mg SC, 5-20 mg/kg IV)
  TG, median % change from baseline (maximum TG reductions): −1.0% to −75.0%
[2]; Day 11, across the evinacumab doses (75-250 mg SC, 5-20 mg/kg IV)
  LDL-C, mean % changes from baseline: −3.4% to −25.5%
[2]; after 20 mg/kg IV
  duration of LDL reduction: 43 days
  duration of TG reduction: 64 days
[2]; evinacumab group
  headache (TEAE), number of subjects: 7
  headache (TEAE), percent of subjects: 11.3%
  subjects reporting at least one treatment emergent adverse event (TEAE), number: 32 subjects
  subjects reporting at least one treatment emergent adverse event (TEAE), percent: 51.6%
[2]; evinacumab-treated
  increases in ALT/AST [>2X ULN], number of subjects: 5 treated subjects
[2]; healthy subjects with moderately elevated TGs and/or LDL-C
  effect on TGs, LDL-C and HDL-C: rapid and substantial reductions in TGs, as well as reductions in LDL-C and HDL-C
[2]; human, in vivo
  discontinuation due to a TEAE: no subject discontinued due to a TEAE
  dose-related safety trend: no dose-related safety trend
  effect on HDL-C, VLDL-C, total cholesterol, non-HDL-C, ApoA1, and ApoB: Dose-dependent reductions
  effect on Lp(a): no apparent effects
  serious TEAEs: None were serious
[2]; normal healthy volunteers
  effect on major lipid fractions: reduced the three major lipid fractions
[2]; single SC or IV dose, subjects with moderately elevated TGs and/or LDL-C
  tolerability: generally well-tolerated
[3]
  tolerability and LDL-C effect in first-in-human study of healthy human volunteers: shown to reduce LDL-C and was also well tolerated
[4]
  number of VLDLs secreted by the liver and character of VLDL particles: did not affect the number of VLDLs secreted by the liver, but qualitatively altered the VLDL particles that were made
